The source of these data is publication PMC4656143.

The assay has as its target opto-DN-CREB. Briefly: thermal relaxation kinetics.

B1: CREB-bZIP (domain or fragment)
chain: ARKREVRLMKNREAARECRRKKKEYVKCLENRVAVLENQNKTLIEELKALKDLYCHKSD
In turn, B1 gave a stoichiometry N of 1.

The term stoichiometry N denotes the number of molecules, sites or subunits per partner or assembly.
